Data: patent publication US20210315933A1 (TCR2 THERAPEUTICS, published 2021)

Target: T1, human IL13Rα2 on cells (human, UniProt Q14627 27-380)
T1 construct: whole, on cells; also called hIL13Rα2
T1 sequence (looked up): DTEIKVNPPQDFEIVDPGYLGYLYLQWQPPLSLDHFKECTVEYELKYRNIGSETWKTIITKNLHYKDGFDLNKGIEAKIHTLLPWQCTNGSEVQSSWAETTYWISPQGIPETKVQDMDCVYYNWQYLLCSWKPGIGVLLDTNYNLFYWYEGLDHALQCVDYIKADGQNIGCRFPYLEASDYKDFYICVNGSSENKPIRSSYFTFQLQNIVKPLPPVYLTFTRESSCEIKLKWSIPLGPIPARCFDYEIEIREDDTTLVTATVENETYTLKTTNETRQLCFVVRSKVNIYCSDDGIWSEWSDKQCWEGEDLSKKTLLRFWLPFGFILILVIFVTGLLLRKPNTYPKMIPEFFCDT
Assay: flow cytometry control; cell line not stated

Flow Cytometry MFI	Substance
21.4 MFI	Isotype Control (flow cytometry control) (antibody)
90.4 MFI	2o Ab (secondary antibody alone, flow cytometry control)
